{"source": "paper PMC6894463", "about": "“Improved spectrophotometric assay for lytic polysaccharide monooxygenase” (Biotechnology for Biofuels, 2019)", "substrate": "COc1cc(-c2cc(OC)c(O)c(OC)c2)cc(OC)c1O", "experiment": "purified protein", "format": "biochemical, Neurospora crassa", "conditions": "100 µM H2O2 co-substrate, 50 mM sodium phosphate pH 6.0, apparent, no saturation reached", "data": [{"protein": "NcLPMO9C (Neurospora crassa OR74A) (protein, full-length secreted enzyme, recombinant in Pichia pastoris X-33, purified) HTIFQKVSVNGADQGQLKGIRAPANNNPVTDVMSSDIICNAVTMKDSNVLTVPAGAKVGHFWGHEIGGAAGPNDADNPIAASHKGPIMVYLAKVDNAATTGTSGLKWFKVAEAGLSNGKWAVDDLIANNGWSYFDMPTCIAPGQYLMRAELIALHNAGSQAGAQFYIGCAQINVTGGGSASPSNTVSFPGAYSASDPGILINIYGGSGKTDNGGKPYQIPGPALFTCPAGGSGGSSPAPATTASTPKPTSASAPKPVSTTASTPKPTNGSGSGTGAAHSTKCGGSKPAATTKASNPQPTNGGNSAVRAAALYGQCGGKGWTGPTSCASGTCKFSNDWYSQCLP", "values": [{"measurement": "Km", "value": "3.6 ± 0.5", "unit": "mM"}]}]}
